From publication PMC11035591, “Structural insights into the transporting and catalyzing mechanism of DltB in LTA D-alanylation” (Nature Communications, 2024)
Each block holds one binder with its values, some of them ahead of it.

How the values were obtained:
[1] = target: T1, Streptococcus thermophilus DltB (Streptococcus thermophilus), Q5M4V4; experiment: cryo-EM structure; apo DltB tetramer, about 10 mg/mL in β-DDM; 3.42 Å; conditions: remark: other sources report otherwise
T1 chain: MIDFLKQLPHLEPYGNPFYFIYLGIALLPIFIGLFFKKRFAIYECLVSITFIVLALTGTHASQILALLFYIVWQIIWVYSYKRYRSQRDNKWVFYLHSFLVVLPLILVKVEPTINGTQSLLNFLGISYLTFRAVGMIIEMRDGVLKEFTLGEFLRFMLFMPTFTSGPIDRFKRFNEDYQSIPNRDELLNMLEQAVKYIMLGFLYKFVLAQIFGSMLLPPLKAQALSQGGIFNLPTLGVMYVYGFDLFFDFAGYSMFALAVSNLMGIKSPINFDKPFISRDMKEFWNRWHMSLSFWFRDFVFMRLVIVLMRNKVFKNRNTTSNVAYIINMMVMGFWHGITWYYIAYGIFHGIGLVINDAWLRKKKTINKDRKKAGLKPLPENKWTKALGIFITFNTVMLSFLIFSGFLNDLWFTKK

[2] = target: T1, Streptococcus thermophilus DltB …; experiment: cryo-EM structure; DltB tetramer (10 mg/mL) incubated with purified DltC (1:1 ratio) for 30 min; 3.50 Å; conditions: remark: other sources report otherwise
[3] = target: T1, Streptococcus thermophilus DltB …; experiment: SEC; membrane with overexpressed DltB (wild type or mutant) mildly solubilised with 0.25% β-DDM, Superdex 200; fractions analysed by western blot (anti-His); conditions: remark: other sources report otherwise
[4] = target: T1, Streptococcus thermophilus DltB …; experiment: cryo-EM structure; DltB tetramer (10 mg/mL) incubated with the inhibitor m-AMSA (1:3 ratio) for 30 min; 3.23 Å; conditions: remark: other sources report otherwise
[5] = target: T2, Streptococcus thermophilus DltB (Streptococcus thermophilus, UniProt Q5M4V4 1-415); experiment: cryo-EM structure; DltB tetramer (10 mg/mL) incubated with purified DltC (1:1 ratio) for 30 min; 3.50 Å; conditions: both partners purified
T2 construct: the entire chain from Met1 to Lys415 was modelled in the cryo-EM maps ('intact DltB protein'); Homo-tetramer (dimer of dimers) by SEC, cross-linking and cryo-EM; purification also gave oligomer, dimer and monomer fractions; also called WT DltB; DltB tetramer; source: E. coli C41(DE3); purified (Triton X-100 solubilisation, Ni-NTA, Superdex 200 in 0.03% β-DDM); also unpurified in whole cells, on …
T2 sequence (looked up): T1 chain

- stoichiometry N [1]: 4
- stoichiometry N [2]: 4
- stoichiometry N [3]: 4
- stoichiometry N [4]: 4
B1: Streptococcus thermophilus DltB, Q5M4V4 1-415 (enzyme)
chain: T1 chain

- binding result [5]: binds
B2: Streptococcus thermophilus DltC (natural protein)
chain: MDVKAEVIEIIDELFMEDVSDMMDEDLFDAGVLDSMGTVELIVELESRFDIRVPVSEFGRDDWNTANKIVEGVTELRNA
notes: DltC, D-alanyl carrier protein, Streptococcus thermophilus; Used without the 4'-phosphopantetheine (Ppant) modification on Ser35; Modified pET28a vector with a TEV cleavage site; also called DltC-ST; source: E. coli BL21(DE3), purified (Ni column, TEV cleavage, Resource Q)
